From patent US7387779B2, “Anti-angiogenic proteins and fragments and methods of use thereof” (Beth Israel Deaconess Medical Center, priority 1998, dated 2008)

Tests used:
[1] = system: Caspase-3 in PC-3 cells; test: Caspase-3 assay; assay type: cell-based, human
Method: Tumstatin also altered cell morphology of C-PAE cells as monitored by phase contrast microscopy. After treating cells with 20 μg/ml of Tumstatin in the presence of 10% FCS for 24 hours on fibronectin-coated plates, the typical morphological features of apoptotic cells, membrane blebbing, cytoplasmic shrinkage, and chromatin condensation could be observed. […] Caspase-3 assay: Caspase-3 (CPP32) is an intracellular protease activated at the early stage of apoptosis, and initiates cellular breakdown by degrading structural and DNA repair proteins (Casciola-Rosen, L. et al., 1996, J. Exp. Med. 183:1957-64; Salvesen, G. S. et al., 1997, Cell 91:443-46). The protease activity of Caspase-3 was measured spectrophotometrically by detection of the chromophore (p-nitroanilide) cleaved from the labeled substrate (DEVD-pNA). C-PAE cells or PC-3 cells (0.5×10^6 per well) were plated onto a 6-well plate precoated with fibronectin (10 μg/ml) in DMEM supplemented with 10% FCS, and incubated overnight. The next day, the medium was replaced with DMEM containing 2% FCS and then incubated overnight at 37° C. Then cells were then stimulated with bFGF (3 ng/ml) in DMEM supplemented with 2% FCS, and also containing either TNF-α (80 ng/ml, positive control) or Tumstatin (10 μg/ml), and incubated for 24 hours. Controls received PBS buffer. […] Cells were counted and resuspended in cell lysis buffer (Clontech) at a concentration of 4×10^7 cells/ml. […] The absorbance was measured in a microplate reader (Bio-Rad, Hercules, Calif., USA) at 405 nm. […]
The results are shown in FIG. 53, which is a histogram showing caspase-3 activity (as measured at OD405, y-axis) of (x-axis) the control, control+DEVD-fmk, TNF-α, TNF-α+DEVD-fmk, Tumstatin-44-131 (1 μg/ml and 10 μg/ml), and Tumstatin-44-131 (10 μg/ml)+DEVD-fmk. […]
The protease activity of Caspase-3 in cells treated with T3 peptide was measured spectrophotometrically by detection of the chromophore (p-nitroanilide) cleaved from the labeled substrate (DEVD-pNA). […]

[2] = system: C-PAE cells; test: Endothelial cell proliferation, 3H-thymidine incorporation; assay type: cell-based, bovine
Method: C-PAE cells were grown to confluence in DMEM with 10% fetal calf serum (FCS) and kept contact inhibited for 48 hours. Control cells were 786-O (renal carcinoma) cells, PC-3 cells, HPEC cells, and A-498 (renal carcinoma) cells. Cells were harvested with trypsinization (Life Technologies/Gibco BRL, Gaithersburg, Md., USA) at 37° C. for five minutes. A suspension of 12,500 cells in DMEM with 1% FCS was added to each well of a 24-well plate coated with 10 μg/ml fibronectin. The cells were incubated for 24 hours at 37° C. with 5% CO2 and 95% humidity. […] Unstimulated controls received no bFGF. Cells were treated with concentrations of Arresten or endostatin ranging from 0.01 to 50 μg/ml. All wells received 1 μCurie of ^3H-thymidine at the time of treatment. After 24 hours, medium was removed and the wells were washed with PBS. Cells were extracted with 1N NaOH and added to a scintillation vial containing 4 ml of ScintiVerse II (Fisher Scientific, Pittsburgh, Pa., USA) solution. Thymidine incorporation was measured using a scintillation counter. The results are shown in FIGS. 3A and 3B, which are a pair of graphs showing incorporation of ^3H-thymidine into C-PAE cells treated with varying amounts of Arresten (FIG. 3A) or endostatin (FIG. 3B). Arresten appeared to inhibit thymidine incorporation in C-PAE as well as did endostatin. Behavior of control cells treated with Arresten and endostatin is also shown in FIG. 4A, 4B, 4C, and 4D, with Arresten having little effect on 786-O cells (FIG. 4A), PC-3 cells (FIG. 4B), or HPEC cells (FIG. 4C). Endostatin had little effect on A-498 cells (FIG. 4D). All groups in FIGS. 3 and 4 represent triplicate samples.
Bovine calf aortic endothelial (C-PAE) cells were grown to confluence in DMEM with 10% fetal calf serum (FCS) and kept contact inhibited for 48 hours. […] Radioactivity was extracted with 1N NaOH and added to a scintillation vial containing 4 ml of ScintiVerse II (Fisher Scientific, Pittsburgh, Pa., USA) solution. Thymidine incorporation was measured using a scintillation counter. […]

LQRFTTMPFLFCNVNDVCNF [T3]
Caspase-3 activity in nonendothelial PC-3 cells [1]: no difference

B1: Canstatin: NC1 domain of the α2 chain of Type IV collagen (SEQ ID NO:6) (protein, listed as Homo sapiens)
chain: VSIGYLLVKHSQTDQEPMCPVGMNKLWSGYSLLYFEGQEKAHNQDLGLAGSCLARFSTMPFLYCNPGDVCYYASRNDKSYWLSTTAPLPMMPVAEDEIKPYISRCSVCEAPAIAIAVHSQDVSIPHCPAGWRSLWIGYSFLMHTAAGDEGGGQSLVSPGSCLEDFRATPFIECNGGRGTCHYYANKYSFWLTTIPEQSFQGSPSADTLKAGLIRTHISRCQVCMKNL
ED50, inhibition of proliferation ([2]; 10% serum-stimulated): approximately 0.5 μg/ml

B2: Tumstatin-44-131: residues 44 to 131 of full-length Tumstatin (SEQ ID NO:33) (protein)
chain: FSFLFVQGNQRAHGQDLGTLGSCLQRFTTMPFLFCNVNDVCNFASRNDYSYWLSTPALMPMNMAPITGRALEPYISRCTVCEGPAIAI
modifications: Tumstatin-45-132 (amino acids 45-132 of SEQ ID NO10)
Caspase-3 activity in nonendothelial PC-3 cells [1]: not observed

B3: endostatin: tumor associated angiogenesis inhibitor used as comparator (protein, UniProt P39060 1572-1754, looked up)
Endostatin: HSHRDFQPVLHLVALNSPLSGGMRGIRGADFQCFQQARAVGLAGTFRAFLSSRLQDLYSIVRRADRAAVPIVNLKDELLFPSWEALFSGSEGPLKPGARIFSFDGKDVLRHPTWPQKSVWHGSDPNGRRLTESYCETWRTEAPSATGQASSLLGGRLLGQSAASCHHAYIVLCIENSFMTASK
modifications: Endostatin
ED50, inhibition of proliferation ([2]; bFGF-stimulated, E. Coli-produced Arresten): 0.75 µg/mL

B4: Tumstatin: NC1 domain of the α3 chain of type IV collagen, residues 1-244 (SEQ ID NO:10) (protein, listed as Homo sapiens)
chain: GLKGKRGDSGSPATWTTRGFVFTRHSQTTAIPSCPEGTVPLYSGFSFLFVQGNQRAHGQDLGTLGSCLQRFTTMPFLFCNVNDVCNFASRNDYSYWLSTPALMPMNMAPITGRALEPYISRCTVCEGPAIAIAVHSQTTDIPPCPHGWISLWKGFSFIMFTSAGSEGTGQALASPGSCLEEFRASPFLECHGRGTCNYYSNSYSFWLASLNPERMFRKPIPSTVKAGELEKIISRCQVCMKKRH
Caspase-3 activity in nonendothelial PC-3 cells [1]: no difference
ED50, inhibition of 3H-thymidine incorporation ([2]; 20% FCS stimulated): approximately 0.01 mg/ml
